How the values were obtained:
ChsB1 = ChsB1 (Mycobacterium tuberculosis, UniProt O53547)
purified protein [1] = substrate: CCCCC[C@@H](O)CC(=O)SCCNC(=O)CCNC(=O)[C@H](O)C(C)(C)COP(=O)(O)OP(=O)(O)OC[C@H]1O[C@@H](n2cnc3c(N)ncnc32)[C@H](O)[C@@H]1OP(=O)(O)O; experiment: purified protein; details: pH 8.5; 25.0 °C
purified protein [2] = substrate: C[C@@H]([C@H]1CC[C@H]2[C@@H]3CCC4=CC(=O)CC[C@]4(C)[C@H]3CC[C@]12C)[C@@H](O)CC(=O)SCCNC(=O)CCNC(=O)[C@H](O)C(C)(C)COP(=O)(O)OP(=O)(O)OC[C@H]1O[C@@H](n2cnc3c(N)ncnc32)[C@H](O)[C@@H]1OP(=O)(O)O; experiment: purified protein; details: pH 8.5; 25.0 °C
purified protein [3] = substrate: C[C@H](C(=O)CC(=O)SCCNC(=O)CCNC(=O)[C@H](O)C(C)(C)COP(=O)(O)OP(=O)(O)OC[C@H]1O[C@@H](n2cnc3c(N)ncnc32)[C@H](O)[C@@H]1OP(=O)(O)O)[C@H]1CC[C@H]2[C@@H]3CCC4=CC(=O)CC[C@]4(C)[C@H]3CC[C@]12C; experiment: purified protein; details: pH 8.5; 25.0 °C
purified protein [4] = substrate: C[C@]12CC[C@H]3[C@@H](CCC4=CC(=O)CC[C@@]43C)[C@@H]1CC[C@@H]2O; experiment: purified protein; details: pH 8.5; 25.0 °C
purified protein [5] = substrate: NC(=O)C1=CN([C@@H]2O[C@H](COP(=O)(O)OP(=O)(O)OC[C@H]3O[C@@H](n4cnc5c(N)ncnc54)[C@H](O)[C@@H]3O)[C@@H](O)[C@H]2O)C=CC1; experiment: purified protein; details: pH 8.5; 25.0 °C; varied: cofactor
purified protein [6] = substrate: NC(=O)c1ccc[n+]([C@@H]2O[C@H](COP(=O)(O)OP(=O)(O)OC[C@H]3O[C@@H](n4cnc5c(N)ncnc54)[C@H](O)[C@@H]3O)[C@@H](O)[C@H]2O)c1; experiment: purified protein; details: pH 8.5; 25.0 °C; varied: cofactor
purified protein [7] = substrate: CC(=CCC[C@@H](C)[C@H]1CC[C@H]2[C@@H]3CCC4=CC(=O)CC[C@]4(C)[C@H]3CC[C@]12C)C(=O)SCCNC(=O)CCNC(=O)[C@H](O)C(C)(C)COP(=O)(O)OP(=O)(O)OC[C@H]1O[C@@H](n2cnc3c(N)ncnc32)[C@H](O)[C@@H]1OP(=O)(O)O; experiment: purified protein; details: pH 7.4; 25.0 °C
purified protein [8] = substrate: CCCCC/C=C/C(=O)SCCNC(=O)CCNC(=O)[C@H](O)C(C)(C)COP(=O)(O)OP(=O)(O)OC[C@H]1O[C@@H](n2cnc3c(N)ncnc32)[C@H](O)[C@@H]1OP(=O)(O)O; experiment: purified protein; details: pH 7.4; 25.0 °C
purified protein [9] = substrate: C[C@H](/C=C/C(=O)SCCNC(=O)CCNC(=O)[C@H](O)C(C)(C)COP(=O)(O)OP(=O)(O)OC[C@H]1O[C@@H](n2cnc3c(N)ncnc32)[C@H](O)[C@@H]1OP(=O)(O)O)[C@H]1CC[C@H]2[C@@H]3CCC4=CC(=O)CC[C@]4(C)[C@H]3CC[C@]12C; experiment: purified protein; details: pH 7.4; 25.0 °C

**Q.** How did the “X-ray co-crystal structure, 2.21 Å” value (ChsB1) turn out when `NC(=O)c1ccc[n+]([C@@H]2O[C@H](COP(=O)(O)OP(=O)(O)OC[C@H]3O[C@@H](n4cnc5c(N)ncnc54)[C@H](O)[C@@H]3O)[C@@H](O)[C@H]2O)c1` [NAD^+] was run?
**A.** Co-crystallization of NAD^+ and ChsB1 yielded cubic crystals by sitting drop vapor diffusion

B1: ChsB1 (Mycobacterium tuberculosis H37Rv) (protein)
chain: MKLTESNRSPRTTNTTDLSGKVAVVTGAAAGLGRAEALGLARLGATVVVNDVASALDASDVVDEIGAAAADAGAKAVAVAGDISQRATADELLASAVGLGGLDIVVNNAGITRDRMLFNMSDEEWDAVIAVHLRGHFLLTRNAAAYWRDKAKDAEGGSVFGRLVNTSSEAGLVGPVGQANYAAAKAGITALTLSAARALGRYGVCANVICPRARTAMTADVFGAAPDVEAGQIDPLSPQHVVSLVQFLASPAAAEVNGQVFIVYGPQVTLVSPPHMERRFSADGTSWDPTELTATLRDYFAGRDPEQSFSATDLMRQ
**Q.** Which Km (purified protein [1]) does the source give for B1 here?
**A.** 169 ± 21 µM

**Q.** What about the kcat/Km (purified protein [1]) of the same molecule?
**A.** 15000 M⁻¹ s⁻¹

**Q.** What about the Km (purified protein [2]) of the same molecule?
**A.** 5.3 ± 1 µM

**Q.** What about the kcat/Km (purified protein [2]) of the same molecule?
**A.** 1.7e+06 M⁻¹ s⁻¹

**Q.** What about the Km (purified protein [3]) of the same molecule?
**A.** 25 ± 5 µM

**Q.** What about the kcat/Km (purified protein [3]) of the same molecule?
**A.** 64000 M⁻¹ s⁻¹

**Q.** And the Km (purified protein [4])?
**A.** 369 ± 75 µM

**Q.** And the kcat/Km (purified protein [4])?
**A.** 810 M⁻¹ s⁻¹

**Q.** What about the Km (purified protein [5]) of the same molecule?
**A.** 40 ± 6 µM

**Q.** And the Km (purified protein [6])?
**A.** 70 ± 10 µM

B2: ChsH3 (Mycobacterium tuberculosis H37Rv) (protein)
chain: MPIDLDVALGAQLPPVEFSWTSTDVQLYQLGLGAGSDPMNPRELSYLADDTPQVLPTFGNVAATFHLTTPPTVQFPGIDIELSKVLHASERVEVPAPLPPSGSARAVTRFTDIWDKGKAAVICSETTATTPDGLLLWTQKRSIYARGEGGFGGKRGPSGSDVAPERAPDLQVAMPILPQQALLYRLCGDRNPLHSDPEFAAAAGFPRPILHGLCTYGMTCKAIVDALLDSDATAVAGYGARFAGVAYPGETLTVNVWKDGRRLVASVVAPTRDNAVVLSGVELVPA
**Q.** B2 was tested. Which Km (purified protein [7]) did it give?
**A.** 12 ± 6 µM

**Q.** What about the kcat/Km (purified protein [7]) of the same molecule?
**A.** 120000 M⁻¹ s⁻¹

**Q.** What about the Km (purified protein [8]) of the same molecule?
**A.** 112 ± 12 µM

**Q.** And the kcat/Km (purified protein [8])?
**A.** 1.5e+06 M⁻¹ s⁻¹

**Q.** What about the Km (purified protein [9]) of the same molecule?
**A.** 55 ± 5 µM

**Q.** What about the kcat/Km (purified protein [9]) of the same molecule?
**A.** 2e+06 M⁻¹ s⁻¹

From paper PMC8204306 (ACS Infectious Diseases, 2021)
